Values quoted from earlier work, collected in article PMC5012591.

Target: flagellar motor switch protein FliM (Escherichia coli) (UniProt P06974)
Sequence of UniProt P06974 (P06974 whole entry): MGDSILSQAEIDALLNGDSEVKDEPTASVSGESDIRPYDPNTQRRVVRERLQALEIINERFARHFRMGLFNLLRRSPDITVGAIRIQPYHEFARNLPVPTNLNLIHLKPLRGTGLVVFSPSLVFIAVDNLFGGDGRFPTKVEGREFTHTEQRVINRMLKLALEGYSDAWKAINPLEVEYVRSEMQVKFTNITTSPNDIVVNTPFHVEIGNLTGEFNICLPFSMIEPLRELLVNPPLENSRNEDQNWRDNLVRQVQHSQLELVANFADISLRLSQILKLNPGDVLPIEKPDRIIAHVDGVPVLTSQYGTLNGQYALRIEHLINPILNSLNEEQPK

## CheY-P (from UniProt P0AE67)
  Kd: 3.06 µM
